{"source": "paper PMC10872408", "about": "(Structure (London, England : 1993), 2023)", "origin": "cited, not measured here", "target": "Gαi3 (Rattus norvegicus) (UniProt P08753)", "sequence (P08753 2-354)": "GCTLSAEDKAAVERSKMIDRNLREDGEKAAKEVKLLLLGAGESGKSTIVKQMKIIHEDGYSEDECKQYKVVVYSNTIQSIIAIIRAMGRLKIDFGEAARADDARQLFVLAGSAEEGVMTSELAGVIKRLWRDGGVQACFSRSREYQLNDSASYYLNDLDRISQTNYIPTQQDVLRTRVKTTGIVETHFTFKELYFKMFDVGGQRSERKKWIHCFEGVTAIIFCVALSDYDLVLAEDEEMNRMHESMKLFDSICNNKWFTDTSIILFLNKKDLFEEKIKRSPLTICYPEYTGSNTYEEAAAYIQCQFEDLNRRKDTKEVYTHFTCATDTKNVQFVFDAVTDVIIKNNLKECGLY", "settings": "cited from earlier work"}
{"substance": "GINIP (from UniProt Q9UPV7)", "values": [{"measurement": "Kd", "value": 65, "unit": "nM"}]}
